From US20190225662A1

Molecular target: GABABR1a on mouse hippocampal neurons (cultures and slices) (mouse), Q9WV18
Test: cell-based or functional assay

Sequence of GABABR1a on mouse hippocampal neurons (cultures and slices) (mouse), Q9WV18 (Q9WV18 20-960): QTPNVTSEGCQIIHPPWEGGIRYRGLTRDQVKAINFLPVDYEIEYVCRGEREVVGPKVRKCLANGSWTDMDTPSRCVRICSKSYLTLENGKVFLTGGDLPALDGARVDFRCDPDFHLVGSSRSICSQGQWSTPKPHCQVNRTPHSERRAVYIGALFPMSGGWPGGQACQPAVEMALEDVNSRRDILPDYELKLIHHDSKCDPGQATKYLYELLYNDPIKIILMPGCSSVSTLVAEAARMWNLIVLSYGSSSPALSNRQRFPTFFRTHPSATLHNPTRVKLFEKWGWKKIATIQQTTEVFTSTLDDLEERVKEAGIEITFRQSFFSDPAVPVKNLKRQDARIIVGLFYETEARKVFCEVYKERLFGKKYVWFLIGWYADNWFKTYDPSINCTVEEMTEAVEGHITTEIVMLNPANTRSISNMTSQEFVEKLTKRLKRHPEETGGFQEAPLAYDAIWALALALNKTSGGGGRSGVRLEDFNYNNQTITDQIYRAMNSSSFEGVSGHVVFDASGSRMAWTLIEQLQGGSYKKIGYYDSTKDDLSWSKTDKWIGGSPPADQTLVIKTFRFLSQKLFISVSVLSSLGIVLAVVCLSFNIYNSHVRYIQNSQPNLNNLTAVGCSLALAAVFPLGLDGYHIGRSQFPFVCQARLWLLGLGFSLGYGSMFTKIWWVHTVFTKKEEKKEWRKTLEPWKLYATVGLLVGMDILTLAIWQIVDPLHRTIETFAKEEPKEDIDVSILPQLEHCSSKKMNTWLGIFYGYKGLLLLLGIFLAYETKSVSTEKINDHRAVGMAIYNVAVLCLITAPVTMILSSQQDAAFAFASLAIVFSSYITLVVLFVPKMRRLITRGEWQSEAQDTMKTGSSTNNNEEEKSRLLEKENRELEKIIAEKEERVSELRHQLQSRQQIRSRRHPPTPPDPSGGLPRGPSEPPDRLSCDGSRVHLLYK

reduction of the frequency of miniature excitatory postsynaptic currents (mEPSCs), 250 nM sAPPα, primary hippocampal neurons: 39%
reduction of the frequency of miniature inhibitory postsynaptic currents (mIPSCs), 250 nM sAPPα, primary hippocampal neurons: 44%
reduction of total presynaptic strength (S=ΔF×D), FM1-43 synaptic vesicle recycling, cultured hippocampal neurons: 57%
reduction on mIPSC amplitude: 14%
B1: sAPPα (Fc cleaved), P12023 18-687 (ligand)
chain: LEVPTDGNAGLLAEPQIAMFCGKLNMHMNVQNGKWESDPSGTKTCIGTKEGILQYCQEVYPELQITNVVEANQPVTIQNWCKRGRKQCKTHTHIVIPYRCLVGEFVSDALLVPDKCKFLHQERMDVCETHLHWHTVAKETCSEKSTNLHDYGMLLPCGIDKFRGVEFVCCPLAEESDSVDSADAEEDDSDVWWGGADTDYADGGEDKVVEVAEEEEVADVEEEEADDDEDVEDGDEVEEEAEEPYEEATERTTSTATTTTTTTESVEEVVRVPTTAASTPDAVDKYLETPGDENEHAHFQKAKERLEAKHRERMSQVMREWEEAERQAKNLPKADKKAVIQHFQEKVESLEQEAANERQQLVETHMARVEAMLNDRRRLALENYITALQAVPPRPHHVFNMLKKYVRAEQKDRQHTLKHFEHVRMVDPKKAAQIRSQVMTHLRVIYERMNQSLSLLYNVPAVAEEIQDEVDELLQKEQNYSDDVLANMISEPRISYGNDALMPSLTETKTTVELLPVNGEFSLDDLQPWHPFGVDSVPANTENEVEPVDARPAADRGLTTRPGSGLTNIKTEEISEVKMDAEFGHDSGFEVRHQK
